Reference: US20140024806A1
Square brackets hold non-standard residues; d marks the D form. Ends that are not written are not given here. Hyp = O=C(O)[C@@H]1C[C@@H](O)CN1

Tests used:
[1] = molecular target: growth hormone receptor (GHR) on NIH 3T3-L1 cells (Mus musculus (Mouse)) (UniProt P16882); assay: radioreceptor competition assay, [125I]-hGH on GHR-expressing NIH 3T3-L1 cell monolayers
[2] = molecular target: anti-hGH-(SO)10 antibodies (1:10,000 serum dilution); assay: competition ELISA, hGH-(SO)10-coated plates, serum 1:10,000, 100 ug/ml (SO)10 as competitive inhibitor

UniProt P16882, sequence (P16882 25-650 limits assumed, form in doubt): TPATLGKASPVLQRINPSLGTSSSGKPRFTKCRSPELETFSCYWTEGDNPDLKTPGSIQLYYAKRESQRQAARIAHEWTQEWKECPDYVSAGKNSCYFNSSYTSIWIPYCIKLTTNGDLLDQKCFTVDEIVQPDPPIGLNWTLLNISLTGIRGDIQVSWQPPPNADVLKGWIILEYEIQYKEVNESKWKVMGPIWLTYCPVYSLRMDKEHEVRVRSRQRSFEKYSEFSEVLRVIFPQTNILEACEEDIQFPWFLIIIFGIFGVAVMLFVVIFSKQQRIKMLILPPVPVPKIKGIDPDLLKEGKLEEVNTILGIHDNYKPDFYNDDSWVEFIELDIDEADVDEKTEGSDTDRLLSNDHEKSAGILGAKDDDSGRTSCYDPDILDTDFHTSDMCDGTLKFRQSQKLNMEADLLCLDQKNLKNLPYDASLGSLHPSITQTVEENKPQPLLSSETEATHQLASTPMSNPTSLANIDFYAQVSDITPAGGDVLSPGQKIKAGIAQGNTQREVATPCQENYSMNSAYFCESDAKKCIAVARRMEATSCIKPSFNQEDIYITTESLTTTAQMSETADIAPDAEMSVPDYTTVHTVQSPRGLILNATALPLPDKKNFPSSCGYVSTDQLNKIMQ

EC50 [1] [nM]	percent inhibition [2] [%]	Molecule
10		hGH-(SO)10-EGFP fusion glycoprotein (human growth hormone, (Ser-Hyp)10, enhanced green fluorescent protein) (ligand)
	5	S[Hyp]S[Hyp]S[Hyp]S[Hyp]S[Hyp]S[Hyp]S[Hyp]S[Hyp]S[Hyp]S[Hyp] (also: O-glycosylated, sites not given here) [purified (SO)10 glycomodule]
